Measurements published in patent US20160040155A1, “ACTIVATING AN ALTERNATIVE PATHWAY FOR HOMOLOGY-DIRECTED REPAIR TO STIMULATE TARGETED GENE CORRECTION AND GENOME ENGINEERING” (UNIVERSITY OF WASHINGTON THROUGH ITS CENTER FOR …, priority 2013, published 2016).
Entries after “also recorded” stand apart in the source; their conditions may differ. One block for each molecule: values may come before it.

Columns and labels:
Type in all cases: cell-based, human
[1] = system: Flp-In T-REx-293 cells; assay: Tetracycline-inducible P-Tet TL reporter HDR and mutEJ assay with or without doxycycline
Procedure: To ask if active transcription was required for the transcribed strand bias in HDR at nicks, derivatives of the TLTP and TLNT reporters were created in which a tetracycline-inducible (P-Tet) was substituted for the constitutive SFFV promoter upstream of GFP. TheseP-Tet TLTP and P-Tet TLNT reporters were stably integrated at the unique FRT site in Flp-In™ T-REx™-293 cells. Cells were cultured with (ON) or without (OFF) 1 μg/ml doxycycline, transfected with an I-AniI expression construct and the pCS14GFP plasmid dsDNA donor, and after 8-9 days of culture, doxycycline was added to the OFF cells to permit detection of HDR (GFP+) and mutEJ (mCherry+) events that had occurred in the absence of transcription. Active transcription increased the frequency of HDR at a transcribed-strand nick 2.5-fold, but reduced the frequency of HDR at a non-transcribed strand nick 4-fold (FIG. 9C). These opposing effects together accounted for the 8-fold greater frequency of HDR at a transcribed strand nick in a transcribed gene (FIG. 9B). […] Without wishing to be bound by theory, the transcription-associated strand bias of HDR at nicks may reflect unwinding ahead of the transcription apparatus that exposes the recombinogenic 3′ end of a transcribed strand nick that stimulates HDR, while occlusion of the 3′ end and exposure of the less recombinogenic 5′ end of a non-transcribed strand nick may hinder HDR (FIG. 9D). Similarly, the 2-fold reduction in mutEJ observed at DSBs, but not at nicks (FIG. 17B), may be caused by occlusion of the DSB by factors associated with the transcription apparatus.
(§1) Cell culture and transfection. […]
Flow cytometry. Cells were fixed in 2% formaldehyde and analyzed on an LSR II™ flow cytometer (Becton Dickinson, Franklin Lakes, N.J.). […]

[2] = system: 293T-TL7TP cells; assay: Traffic Light (TL) reporter HDR (GFP+) flow assay, I-AniI nickase or cleavase, 293T-TL7TP clonal line; settings: I-AniI nick, 99 nt ssDNA donors
From the text: Damage to the transcribed DNA strand is preferentially detected and repaired in transcription-coupled nucleotide excision repair^7, and transcribedstrand nicks can arrest transcriptional elongation in human cell extracts^8. […] Chromosomal repair targets were derived from the TL reporter^9. TLTP and […] reporters carry an I-AniI site oriented for nicking the transcribed or non-transcribed strand, respectively (FIGS. 1A and 5A-5E). HDR that replaces the I-AniI site and nonsense codons yields GFP+ cells (FIGS. 1B and 5A-5E). […] GFP+ cells among I-AniI-expressing (BFP+) cells were quantified 3 days later.
(§2) Flow cytometry data were analyzed using FlowJo™ (Tree Star, Ashland, Oreg.) flow cytometry analysis software and frequencies were transferred to Microsoft Excel™ in which statistical significance was determined by two-tailed t-test. In all experiments I-AniI was co-expressed with mTagBFP (BFP) and GFP+ and mCherry+ frequencies among BFP+ cells are shown.
Damage to the transcribed strand is preferentially detected and repaired in transcription-coupled nucleotide excision repair (16), and transcribed strand nicks can arrest transcriptional elongation in human cell extracts (17). […]

[3] = system: HT1080-TL4TP clonal line; assay: TL reporter HDR (GFP+) flow assay, I-AniI nickase or cleavase, HT1080-TL4TP clonal line; settings: I-AniI nick, ssDNA donors
Procedure: as §2
ssDNA molecules can serve as donors for HDR at DSBs (22-24). It was asked if they can also serve as donors for HDR at nicks using 99 nt ssDNA oligonucleotides in which a central 17 nt heterologous region corrects the mutations in the defective target gene (FIG. 10A). […] No donor strand bias was evident at DSBs.
Flow cytometry, HDR and mutEJ frequencies. Cells were processed for flow cytometry as described previously (13). In experiments with I-AniI, which was co-expressed with mTagBFP (BFP), data are presented as GFP+ and mCherry+ frequencies among BFP+ cells, except in cases where flow was carried out more than 8 days post-transfection, by which time the BFP signal was largely extinguished.
as §1
(§3) Flow cytometry. Cells were fixed in 2% formaldehyde and analyzed on an LSR II™ flow cytometer (Becton Dickinson, Franklin Lakes, N.J.). […] GFP, mCherry, and mTagBFP fluorescence were detected with 488 nm, 561 nm 406 nm and 641 nm lasers, respectively. […]

[4] = system: 293T-TL7TP line; assay: TL reporter mutagenic end joining (mCherry+) flow assay, I-AniI, 293T-TL7TP line; settings: mCherry+ cells, nicks or DSBs
From the text: Damage associated with gene targeting must be minimized for these applications. While the sequence-specificity of I-AniI limits its application to genome engineering, it is useful as a model in this context, as it cuts DNA to generate 5′-phosphate and 3′-hydroxyl ends like the FokI cleavage domain^13 of zinc finger or TALE nucleases suited for genome engineering applications. The TL reporter was used to quantify mutagenic end joining (EJ) accompanied by +2 frameshift that allows the mCherry gene to be translated (FIG. 1B). In the 293T-TL7TP line, the frequency of nick-initiated mutagenic EJ was nearly two orders of magnitude lower than that of DSB-initiated mutagenic EJ, regardless of donor (FIG. 3E). RAD51K133R expression increased the frequency of mutagenic EJ, but the frequency of nick-initiated mutagenic EJ remained lower than that of DSB-initiated mutagenic EJ (FIG. 3E). […]
Flow cytometry data were analyzed using FlowJo™ (Tree Star, Ashland, Oreg.) flow cytometry analysis software and frequencies were transferred to Microsoft Excel™ in which statistical significance was determined by two-tailed t-test. […]
as §3

[5] = system: 293T-TLTP and 293T-TLNT cell populations; assay: TL reporter HDR (GFP+) assay in 293T-TLTP and 293T-TLNT cell populations, I-AniI; settings: I-AniI nickase
From the text: Populations of 293T cells bearing either the TLTP or TLNT reporter at heterogeneous integration sites were transiently transfected with a construct co-expressing I-AniI and the blue fluorescent protein mTagBFP (BFP), and with the dsDNA plasmid donor pCS14GFP. This donor is homologous with the TLTP and TLNT reporters over a region extending 2.47 kb upstream and 0.56 kb downstream of the I-AniI site (FIG. 15A-15C). GFP+ cells among I-AniI-expressing (BFP+) cells were quantified at 3 days post-transfection. […] Nicks initiated HDR with nearly 8-fold greater frequency in the TLTP than in the TLNT population.
To learn what determines ssDNA donor strand bias, HDR by ssDNA donors complementary to the intact (cI) or nicked (cN) strand at transcribed and non-transcribed strand nicks in the TLTP and TLNT populations was compared. The TLTP and TLNT populations carry reporters delivered by lentiviruses and integrated at heterogeneous chromosomal positions, to minimize possible effects of replication direction on this assay.
To determine whether there is a predominant directionality to unwinding or resection, a comparison was made of HDR at nicks by ssDNA donors identical in length (75 nt) and centered on the nick or extending either 3′ or 5′ of the nick. […]

[6] = ON vs OFF, 1 μg/ml doxycycline, pCS14GFP dsDNA donor

Molecule: C[C@H]1c2cccc(O)c2C(=O)C2=C(O)[C@]3(O)C(=O)C(C(N)=O)=C(O)[C@@H](N(C)C)[C@@H]3[C@@H](O)[C@@H]21 [doxycycline]
- reduction in mutEJ at DSBs ([1]; ON vs OFF doxycycline, FIG. 17B, not at nicks): 2 fold
- increase of the frequency of HDR at a transcribed-strand nick [1, 6]: 2.5 fold
- reduction of the frequency of HDR at a non-transcribed strand nick [1, 6]: 4 fold

- frequency of HDR at nicks by ssDNA donor [3]: stimulating
B1: RAD51K133R: dominant negative RAD51 mutant which does not hydrolyze ATP, transiently expressed from pCMV-RAD51K133R-T2A-IFP-1.4 (protein, UniProt Q06609 2-339, looked up, variant K133R)
DNA repair protein RAD51 …: AMQMQLEANADTSVEEESFGPQPISRLEQCGINANDVKKLEEAGFHTVEAVAYAPKKELINIKGISEAKADKILAEAAKLVPMGFTTATEFHQRRSEIIQITTGSKELDKLLQGGIETGSITEMFGEFRTGRTQICHTLAVTCQLPIDRGGGEGKAMYIDTEGTFRPERLLAVAERYGLSGSDVLDNVAYARAFNTDHQTQLLYQASAMMVESRYALLIVDSATALYRTDYSGRGELSARQMHLARFLRMLLRLADEFGVAVVITNQVVAQVDGAAMFAADPKKPIGGNIIAHASTTRLYLRKGRGETRICKIYDSPCLPEAEAMFAINADGVGDAKD
modifications: T2A-IFP1.4 coexpression
- frequency of HDR at nicks by ssDNA donor [2]: stimulating
- frequency of mutagenic EJ [4]: increased
- effect on HDR at nicks in the transcribed or non-transcribed strand [5]: Stimulation was evident; also recorded: comparable effects
